The text below walks through data of patent publication US20180142032A1 (Sanofi, published 2018).

The target in one assay is T1, hLAMP1_ΔGYQTI (human, UniProt P11279 29-412).
T1 construct: also called pXL5626
T1 sequence: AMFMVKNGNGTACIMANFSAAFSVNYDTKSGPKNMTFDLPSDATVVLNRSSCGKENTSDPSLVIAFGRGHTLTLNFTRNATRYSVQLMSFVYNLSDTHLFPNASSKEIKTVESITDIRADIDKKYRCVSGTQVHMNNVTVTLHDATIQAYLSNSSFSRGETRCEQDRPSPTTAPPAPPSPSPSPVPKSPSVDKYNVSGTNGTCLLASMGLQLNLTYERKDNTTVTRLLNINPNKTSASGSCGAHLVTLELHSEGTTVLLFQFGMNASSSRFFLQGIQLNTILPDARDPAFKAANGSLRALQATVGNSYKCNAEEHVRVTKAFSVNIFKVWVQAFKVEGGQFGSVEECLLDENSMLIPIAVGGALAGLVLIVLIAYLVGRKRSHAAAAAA
Briefly: flow cytometry, transfected 293-F cells.

The next assay concerns the target T2, LAMP1_mseq6_ΔGYQTI (human; mouse, UniProt P11279 29-412).
T2 construct: on cells; also called pXL5990
T2 chain: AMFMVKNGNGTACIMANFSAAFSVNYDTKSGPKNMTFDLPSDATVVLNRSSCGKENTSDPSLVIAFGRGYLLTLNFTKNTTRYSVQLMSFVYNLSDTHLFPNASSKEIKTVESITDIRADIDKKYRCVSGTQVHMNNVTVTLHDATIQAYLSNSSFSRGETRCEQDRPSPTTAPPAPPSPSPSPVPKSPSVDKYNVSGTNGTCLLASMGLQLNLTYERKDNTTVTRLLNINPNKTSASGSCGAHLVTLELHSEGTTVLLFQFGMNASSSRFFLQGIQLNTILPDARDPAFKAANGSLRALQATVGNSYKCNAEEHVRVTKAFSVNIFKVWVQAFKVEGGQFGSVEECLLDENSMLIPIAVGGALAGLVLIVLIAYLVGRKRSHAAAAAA
The experiment in a line: flow cytometry, transfected 293-F cells.

The target of the next assay is T3, LAMP1_mseq4_ΔGYQTI (human; mouse).
T3 construct: on cells; also called pXL6015
Briefly: flow cytometry, transfected 293-F cells.

Assay [1] has as its target T4, human LAMP1 at the cell surface (human, UniProt P11279 29-417).
T4 construct: native on tumour cells (PDX, Colo205, SW480, LS174T) or from the cloned CDS NM_005561.3 in HEK293 and HCT116; signal peptide 1-28 left out; also called huLAMP1; full length human LAMP1
T4 sequence: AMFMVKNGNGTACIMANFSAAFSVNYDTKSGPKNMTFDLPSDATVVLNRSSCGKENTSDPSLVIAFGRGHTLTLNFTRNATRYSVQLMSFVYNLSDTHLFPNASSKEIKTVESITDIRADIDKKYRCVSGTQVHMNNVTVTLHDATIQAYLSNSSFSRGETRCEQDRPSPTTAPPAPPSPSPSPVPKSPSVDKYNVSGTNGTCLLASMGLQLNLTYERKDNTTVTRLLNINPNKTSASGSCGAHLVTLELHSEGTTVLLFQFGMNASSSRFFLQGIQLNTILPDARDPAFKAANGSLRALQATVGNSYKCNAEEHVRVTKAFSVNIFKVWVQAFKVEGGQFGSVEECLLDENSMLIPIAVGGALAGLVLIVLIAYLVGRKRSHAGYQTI
The experiment in a line: flow cytometry, transiently transfected HEK293 cells. From the text:
(§1) LAMP1 Coding DNA Sequence, RefSeq NM_005561.3 (SEQ ID NO: 23) was cloned internally. The CDS of Macaca mulatta LAMP1, RefSeq XP_001087801 (SEQ ID NO: 27) was also cloned internally. […] Therefore the secreted LAMP1 used in the following example is referred to cynomolgus monkey. Both CDS were cloned into mammalian expression plasmids under CMV enhancer/promoter and SV40 polyA signals. HEK293 cells (Invitrogen; #K9000-10.) were transiently transfected with human LAMP1 or cynomolgus LAMP1 plasmids using FreeStyle™ MAX 293 Expression System according to the manufacturer's instructions. […] 100 μL/well of goat anti-mouse IgG conjugated with Alexa647 (Invitrogen; # A2135) was added for 45 min at 4° C. and washed three times with PBS 1% BSA. The antibody binding was evaluated after centrifugation and resuspension of cells by adding 200 μl/well PBS 1% BSA and read using Guava® easyCyte™ 8HT Flow Cytometry System. EC50 values were estimated using BIOST@T-SPEED software.

Assay [2] has as its target T5, cynomolgus monkey LAMP1 at the cell surface (cynomolgus monkey, UniProt P11279 29-417 (human entry)).
T5 construct: also called cynoLAMP1; cynomolgus LAMP1
T5 chain: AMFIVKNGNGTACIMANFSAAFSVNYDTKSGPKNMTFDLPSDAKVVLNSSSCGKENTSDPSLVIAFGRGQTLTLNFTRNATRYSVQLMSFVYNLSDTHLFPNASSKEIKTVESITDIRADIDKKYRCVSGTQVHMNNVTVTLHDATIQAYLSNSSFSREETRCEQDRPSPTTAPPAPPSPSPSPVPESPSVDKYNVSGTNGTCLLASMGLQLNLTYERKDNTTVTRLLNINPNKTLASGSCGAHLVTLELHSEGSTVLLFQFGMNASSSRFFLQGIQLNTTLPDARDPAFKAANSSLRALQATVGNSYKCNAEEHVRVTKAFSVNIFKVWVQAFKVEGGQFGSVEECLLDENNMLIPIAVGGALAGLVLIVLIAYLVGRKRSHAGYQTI
The description is as above.
Excerpt: as §1

The next assay concerns the target T6, mLAMP1_ΔGYQTI (mouse, UniProt P11438 25-369).
T6 construct: on cells; also called pXL6009; murine LAMP1; not shown: murine transmembrane domain and cytoplasmic tail with GYQTI replaced by 5 Ala
T6 sequence: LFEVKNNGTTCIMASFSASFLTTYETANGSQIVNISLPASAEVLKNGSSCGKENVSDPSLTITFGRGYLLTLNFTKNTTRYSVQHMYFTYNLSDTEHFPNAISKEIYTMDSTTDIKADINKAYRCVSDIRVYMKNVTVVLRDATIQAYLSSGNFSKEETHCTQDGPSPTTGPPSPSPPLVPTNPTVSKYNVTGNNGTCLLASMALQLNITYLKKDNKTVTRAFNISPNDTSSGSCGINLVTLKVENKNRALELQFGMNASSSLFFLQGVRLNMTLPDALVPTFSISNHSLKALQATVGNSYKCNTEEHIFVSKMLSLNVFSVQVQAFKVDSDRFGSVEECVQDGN
The experiment in a line: flow cytometry, transfected 293-F cells.

B1: huMAb1_1 (antibody, human IgG1, kappa)
heavy: not shown
light: DIQMTQSPSSLSASVGDRVTITCKASQDIDRYMAWYQDKPGKAPRLLIHDTSTLQSGVPSRFSGSGSGRDYTLTISNLEPEDFATYYCLQYDNLWTFGGGTKVEIKRTVAAPSVFIFPPSDEQLKSGTASVVCLLNNFYPREAKVQWKVDNALQSGNSQESVTEQDSKDSTYSLSSTLTLSKADYEKHKVYACEVTHQGLSSPVTKSFNRGEC
notes: humanized, VH1-huIgG1 and VL1-huCk
In turn, B1 showed a mean fluorescence in the assay with hLAMP1_ΔGYQTI of 864. The binding result with LAMP1_mseq6_ΔGYQTI was “no binding”.

B2: MAb1 (antibody, mouse IgG2a, kappa)
heavy: QVQLQQSGAELVKPGASVKMSCKASGYIFTNYNIHWVKKSPGQGLEWIGAIYPGNGDAPYSQKFKDKATLTADKSSSTTYMQLSRLTSEDSAVYYCVRANWDVAFAYWGQGTLVSVSAAKTTAPSVYPLAPVCGDTTGSSVTLGCLVKGYFPEPVTLTWNSGSLSSGVHTFPAVLQSDLYTLSSSVTVTSSTWPSQSITCNVAHPASSTKVDKKIEPRGPTIKPCPPCKCPAPNLLGGPSVFIFPPKIKDVLMISLSPIVTCVVVDVSEDDPDVQISWFVNNVEVHTAQTQTHREDYNSTLRVVSALPIQHQDWMSGKEFKCKVNNKDLPAPIERTISKPKGSVRAPQVYVLPPPEEEMTKKQVTLTCMVTDFMPEDIYVEWTNNGKTELNYKNTEPVLDSDGSYFMYSKLRVEKKNWVERNSYSCSVVHEGLHNHHTTKSFSRTPGK
light: DIQMTQSPPSLSASLGGKVTITCKASQDIDRYMAWYQDKPGKGPRLLIHDTSTLQPGIPSRFSGSGSGRDYSFSISNLEPEDIATYYCLQYDNLWTFGGGTKLEIKRADAAPTVSIFPPSSEQLTSGGASVVCFLNNFYPKDINVKWKIDGSERQNGVLNSWTDQDSKDSTYSMSSTLTLTKDEYERHNSYTCEATHKTSTSPIVKSFNRNEC
notes: murine monoclonal IgG, kappa, from hybridoma; also called murine MAb1
In turn, B2 yielded a mean fluorescence with LAMP1_mseq4_ΔGYQTI of 891. Further, the EC50 in assay [1] is 14 nM; in assay [2], 44 nM.

B3: MAb3 (antibody, V domains shown)
VH: QIQLVQSGPELKKPGETVKISCKASGYIFTNYGMNWVKQAPGKGLKWMGWINTYTGESRYADDFKGRFALSLETSASTAYLQINNLENEDMATYFCAREDYYGNSPWFFDVWGAGTTVTVSS
VL: DIQMTQTTSSLSASLGDRVTISCNASQGINKYLNWYQQKPDGTVKLLIYYTSTLHSGVPSRFSGSGSGTDYSLTINNLEPEDIATYYCQQYTKLPFTFGSGTKLEIK
notes: murine monoclonal IgG, kappa, from hybridoma; also called murine MAb3
For B3, the binding result with mLAMP1_ΔGYQTI was “no binding”.
